The data set addresses NF-kB p65 (RelA) homodimer (UniProt Q04206 Q04206:1-551). The data set can be described thus: EMSA; competitive EMSA; 5 to 15-fold tighter to p65/p65 than p50 homodimer. The settings on record: chain copies: 2 (stated homodimer). The protocol: The example used to illustrate that when only one or two dithioate linkages were placed in a molecule, the inhibition/binding of the oligonucleotide to recombinant protein was similar to that of the unsubstituted aptamer illustrates is shown in FIG. 3—as the substitutions of dithiophosphate were increased, binding by the [S₂]-ODN oligonucleotide increased dramatically. For example, in a standard competitive binding assay, ³²P-IgκB promoter element ODN is incubated with recombinant p65 and varying amounts of XBY aptamer competitor. The relative binding ability of the unlabeled ODNs is determined by the concentration needed to effectively compete with the standard labeled ODN. XBY1 through 6 correspond to CK-14 aptamers with 1 through 6 dithiophsphate substitutions, respectively. The present inventors, according to an embodiment of this invention, developed an oligonucleotide containing six dithioate linkages on the two strands, termed XBY-6.
Competitive binding of XBY-6 to p65 homodimers is performed using EMSAs. XBY-6 concentrations are 1.95 (triangle), 3.89 (open circle), and 7.77 (closed circle).
(In EMSA bound probe runs differently from free probe, usually more slowly.)

NF-kB p65 (RelA) homodimer, sequence (Q04206 whole entry, one chain of several): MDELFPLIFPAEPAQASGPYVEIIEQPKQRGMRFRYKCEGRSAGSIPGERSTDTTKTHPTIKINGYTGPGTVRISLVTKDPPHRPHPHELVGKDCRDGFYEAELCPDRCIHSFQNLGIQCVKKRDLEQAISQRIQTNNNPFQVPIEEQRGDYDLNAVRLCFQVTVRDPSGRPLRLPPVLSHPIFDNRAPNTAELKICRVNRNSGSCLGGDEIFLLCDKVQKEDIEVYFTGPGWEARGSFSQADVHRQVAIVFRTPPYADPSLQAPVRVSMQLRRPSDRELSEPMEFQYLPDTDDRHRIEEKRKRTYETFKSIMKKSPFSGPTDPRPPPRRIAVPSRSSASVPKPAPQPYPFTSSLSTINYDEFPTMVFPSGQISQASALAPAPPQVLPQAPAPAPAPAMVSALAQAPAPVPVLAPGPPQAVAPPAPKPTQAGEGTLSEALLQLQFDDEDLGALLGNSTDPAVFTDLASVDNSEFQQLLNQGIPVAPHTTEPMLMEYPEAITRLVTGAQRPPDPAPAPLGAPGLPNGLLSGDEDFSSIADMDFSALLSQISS

B1: XBY-6 (dsDNA)
DNA 1: CCAGGAGATTCCAC
DNA 2: GTGGAATCTCCTGG
modifications: six phosphorodithioate linkages on the two strands, positions shown only in figures
One may read the Kd as the free concentration of one partner at which half of the binding sites on the other are occupied at equilibrium, for simple one-to-one binding. Read a high Kd as a looser complex. In turn, B1 had a Kd of 1.44 nM.

Source of the values: patent US20030162190, “Phosphoromonothioate and phosphorodithioate oligonucleotide aptamer chip for functional proteomics” (published 2003).
